Assay results reported in paper PMC4351158 (Structure (London, England : 1993), 2015).
Where no end group is shown, it is not given here. fluorescein = fluorescein, a fluorescent label on the peptide N-terminus

Assays:
Experiment in all cases: fluorescence polarisation
[1] = biological target: T1, DegS I232A (E. coli, UniProt P0AEE3 27-355, I232A)
T1 sequence (looked up): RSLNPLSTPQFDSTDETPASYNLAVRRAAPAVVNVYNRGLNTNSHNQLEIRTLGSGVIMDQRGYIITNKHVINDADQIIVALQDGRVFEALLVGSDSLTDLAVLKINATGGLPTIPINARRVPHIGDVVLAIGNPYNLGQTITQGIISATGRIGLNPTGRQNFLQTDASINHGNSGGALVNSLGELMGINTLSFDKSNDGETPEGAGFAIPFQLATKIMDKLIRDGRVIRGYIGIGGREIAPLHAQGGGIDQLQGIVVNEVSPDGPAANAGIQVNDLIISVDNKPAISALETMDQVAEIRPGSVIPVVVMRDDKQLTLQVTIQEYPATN

[2] = biological target: T2, DegS Q191A (E. coli, UniProt P0AEE3 27-355, Q191A)
T2 sequence (looked up): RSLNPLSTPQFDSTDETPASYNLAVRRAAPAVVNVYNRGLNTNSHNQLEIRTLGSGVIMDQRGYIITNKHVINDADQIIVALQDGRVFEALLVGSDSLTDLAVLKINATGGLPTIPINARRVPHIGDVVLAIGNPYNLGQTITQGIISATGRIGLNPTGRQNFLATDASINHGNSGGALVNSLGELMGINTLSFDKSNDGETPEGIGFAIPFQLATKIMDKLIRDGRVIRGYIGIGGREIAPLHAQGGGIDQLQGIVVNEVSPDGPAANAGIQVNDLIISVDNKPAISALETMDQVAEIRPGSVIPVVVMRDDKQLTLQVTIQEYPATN

[3] = biological target: T3, wild-type DegS (residues 27-355, without the membrane anchor) (E. coli, UniProt P0AEE3 27-355)
T3 sequence (looked up): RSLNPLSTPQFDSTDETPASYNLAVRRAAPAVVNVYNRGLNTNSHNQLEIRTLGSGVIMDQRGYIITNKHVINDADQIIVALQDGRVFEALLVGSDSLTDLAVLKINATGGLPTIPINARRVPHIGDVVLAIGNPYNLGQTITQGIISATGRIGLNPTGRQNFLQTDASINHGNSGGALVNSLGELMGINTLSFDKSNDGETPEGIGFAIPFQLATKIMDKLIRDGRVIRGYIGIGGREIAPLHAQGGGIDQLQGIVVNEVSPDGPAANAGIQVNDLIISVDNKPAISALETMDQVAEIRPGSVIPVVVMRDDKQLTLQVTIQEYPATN

[4] = biological target: T4, DegS Q187A/H198P (E. coli, UniProt P0AEE3 27-355, Q187A | H198P)
T4 sequence (looked up): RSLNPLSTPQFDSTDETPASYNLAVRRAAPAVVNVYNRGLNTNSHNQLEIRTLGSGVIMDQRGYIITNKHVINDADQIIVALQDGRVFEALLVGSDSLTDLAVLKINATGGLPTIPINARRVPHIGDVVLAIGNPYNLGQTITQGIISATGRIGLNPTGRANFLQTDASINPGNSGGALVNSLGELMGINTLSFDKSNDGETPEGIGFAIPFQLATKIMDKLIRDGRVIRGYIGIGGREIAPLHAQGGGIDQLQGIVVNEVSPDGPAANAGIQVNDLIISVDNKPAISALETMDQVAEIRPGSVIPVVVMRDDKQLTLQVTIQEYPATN

[5] = biological target: T5, DegS L164A (E. coli, UniProt P0AEE3 27-355, L164A)
T5 sequence (looked up): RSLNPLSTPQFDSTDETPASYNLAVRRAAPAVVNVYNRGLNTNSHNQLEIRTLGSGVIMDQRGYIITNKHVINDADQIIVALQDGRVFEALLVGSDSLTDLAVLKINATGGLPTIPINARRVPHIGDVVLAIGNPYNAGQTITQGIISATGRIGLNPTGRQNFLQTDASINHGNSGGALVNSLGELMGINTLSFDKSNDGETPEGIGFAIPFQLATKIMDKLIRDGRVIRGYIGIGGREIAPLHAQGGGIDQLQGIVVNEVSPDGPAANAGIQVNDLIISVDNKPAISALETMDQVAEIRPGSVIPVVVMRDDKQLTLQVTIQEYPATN

[6] = biological target: T6, DegS T169A (E. coli, UniProt P0AEE3 27-355, T169A)
T6 sequence (looked up): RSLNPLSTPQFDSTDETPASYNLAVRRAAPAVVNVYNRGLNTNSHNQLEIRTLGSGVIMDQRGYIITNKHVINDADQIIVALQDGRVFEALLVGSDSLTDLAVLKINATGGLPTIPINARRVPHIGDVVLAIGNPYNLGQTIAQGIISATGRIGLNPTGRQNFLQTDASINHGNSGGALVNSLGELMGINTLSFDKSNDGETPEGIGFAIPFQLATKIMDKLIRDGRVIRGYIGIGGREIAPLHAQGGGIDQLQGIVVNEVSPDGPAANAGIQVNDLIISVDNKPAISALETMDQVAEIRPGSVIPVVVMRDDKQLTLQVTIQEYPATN

Kd [1]: 2.2 ± 0.3 µM
Kd [2]: 3.4 ± 1.3 µM
Kd [3]: 4 ± 0.4 µM
Kd [4]: 1.5 ± 0.1 µM
Kd [5]: 2.8 ± 0.6 µM
Kd [6]: 1.8 ± 0.1 µM
Binder: fluorescein-DNRDGNVYYF [fluorescent OMP peptide fluorescein-DNRDGNVYYF]
